Positions count from the first letter of the chain named. In names and notes the source's numbering stands.
T1: ATP phosphoribosyltransferase (HisG) (Corynebacterium glutamicum, UniProt Q9Z472)
T1 construct: made in house; host or cells: Corynebacterium glutamicum ATCC 13032 (wild type) and HCJ-96, -161, -162, -163, -164, -165 (chromosomal hisG alleles); unpurified supernatant of sonicated cells
T1 sequence (Q9Z472 whole entry, looked up): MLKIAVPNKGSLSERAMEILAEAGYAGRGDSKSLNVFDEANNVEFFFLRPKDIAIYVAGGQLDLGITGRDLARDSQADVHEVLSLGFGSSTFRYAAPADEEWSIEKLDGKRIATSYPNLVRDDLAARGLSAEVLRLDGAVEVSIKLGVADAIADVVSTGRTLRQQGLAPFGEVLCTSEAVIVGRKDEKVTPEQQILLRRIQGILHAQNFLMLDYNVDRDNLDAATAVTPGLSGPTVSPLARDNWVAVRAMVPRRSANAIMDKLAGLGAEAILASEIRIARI

B1: HisG (N215R/G233H/T235Q): ATP phosphoribosyltransferase variant N215R/G233H/T235Q, SEQ ID NO: 1 (protein)
chain: T1 sequence (Q9Z472 whole entry, looked up) with N215R, G233H, T235Q
modifications: HisG
B2: HisG (N215K/L231F/T235A): known HisG variant N215K/L231F/T235A (Biochimie. 2012 March; 94(3):829-38) (protein)
chain: T1 sequence (Q9Z472 whole entry, looked up) with N215K, L231F, T235A
B3: HisG: wild-type Corynebacterium glutamicum ATP phosphoribosyltransferase, SEQ ID NO: 13 (protein)
chain: T1 sequence (Q9Z472 whole entry, looked up)
modifications: HisG
B4: HisG (N215R): ATP phosphoribosyltransferase variant with N215R substitution (protein)
chain: T1 sequence (Q9Z472 whole entry, looked up) with N215R
B5: HisG (N215K/G233H/T235Q): ATP phosphoribosyltransferase variant N215K/G233H/T235Q (protein)
chain: T1 sequence (Q9Z472 whole entry, looked up) with N215K, G233H, T235Q
B6: HisG (G233H/T235Q): ATP phosphoribosyltransferase variant with G233H and T235Q substitutions (protein)
chain: T1 sequence (Q9Z472 whole entry, looked up) with G233H, T235Q
B7: HisG (N215R/L231F/T235A): ATP phosphoribosyltransferase variant N215R/L231F/T235A (protein)
chain: T1 sequence (Q9Z472 whole entry, looked up) with N215R, L231F, T235A

Tests used:
[1] = target: T2, ATP phosphoribosyltransferase (HisG) (Corynebacterium glutamicum, UniProt Q9Z472, G233H/N215R/T235Q); assay: Degree of inhibition by L-histidine on activities of ATP phosphoribosyltransferase variants; assay type: biochemical; settings: L-histidine 100 mM
T2 construct: made in house; host or cells: Corynebacterium glutamicum ATCC 13032 (wild type) and HCJ-96, -161, -162, -163, -164, -165 (chromosomal hisG alleles); unpurified supernatant of sonicated cells
T2 sequence (Q9Z472 whole entry N215R/G233H/T235Q): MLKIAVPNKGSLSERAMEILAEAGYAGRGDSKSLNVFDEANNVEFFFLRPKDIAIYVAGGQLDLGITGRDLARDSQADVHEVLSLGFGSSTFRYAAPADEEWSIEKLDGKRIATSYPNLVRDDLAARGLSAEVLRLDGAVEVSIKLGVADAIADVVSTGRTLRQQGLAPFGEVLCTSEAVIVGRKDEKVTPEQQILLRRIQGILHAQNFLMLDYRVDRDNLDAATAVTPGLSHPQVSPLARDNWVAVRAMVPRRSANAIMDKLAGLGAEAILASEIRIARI
Method: (§1) For the evaluation of the activities of the enzymes, the supernatant was quantified to give the same concentration. These enzymes were used as sample enzymes, and the reaction conditions were as follows: the reaction compositions were mixed to the quantified protein (0.05 mg) to give a total amount of 500 μL, and then measured at 30° C. at a UV wavelength of 290 nm for 90 seconds. With regard to the wild-type ATP phosphoribosyltransferase having low activity, the supernatant protein (0.3 mg) was used and measured at a UV wavelength of 290 nm for 30 minutes for the activity evaluation. The composition of the reaction solution for measuring the activities of the enzymes is as follows:
(§2) The degree of inhibition by L-histidine on the activities of ATP phosphoribosyltransferase and the ATP phosphoribosyltransferase variants obtained in Example 4-1 was measured. Specifically, the activities of these enzymes were measured in the reaction composition solution of Example 4-2, which contained L-histidine (0 mM, 50 mM, or 100 mM), using the method described in Example 4-2. […] However, the activities of the ATP phosphoribosyltransferase variants were less inhibited by L-histidine.

[2] = tested on: ATP phosphoribosyltransferase (HisG); assay: as above; assay type: biochemical, Corynebacterium glutamicum; settings: for Activity of Enzyme, 0 mM L-histidine: L-histidine 0 mM; for Activity of Enzyme, 50 mM L-histidine: L-histidine 50 mM; for Activity of Enzyme, 100 mM L-histidine: L-histidine 100 mM
Method: as §1, §2

[3] = tested on: ATP phosphoribosyltransferase (HisG); assay: Measurement of activities of ATP phosphoribosyltransferases (UV 290 nm, cell supernatant); assay type: biochemical, Corynebacterium glutamicum; settings: for Activity of ATP phosphoribosyltransferase (HisG): 30° C., UV 290 nm, no L-histidine
Method: Corynebacterium glutamicum ATCC 13032 and the strains HCJ-96, HCJ-161, HCJ-162, HCJ-163, HCJ-164, and HCJ-165 selected in Example 3 were each inoculated into a corner-baffle flask (250 mL) containing a seed medium (25 mL), and were cultured at 30° C. for 20 hours with shaking at 200 rpm to obtain a seed culture solution. Thereafter, the seed culture solution (1 mL) was inoculated into a corner-baffle flask (250 mL) containing a production medium (24 mL), and was cultured at 30° C. for 45 hours at 200 rpm. After the culture, the obtained cells were sonicated and centrifuged, and the supernatant obtained therefrom was used for evaluation of the activity of ATP phosphoribosyltransferase.
The activities of the ATP phosphoribosyltransferase variants obtained in Example 4-1 and that of a wild-type ATP phosphoribosyltransferase variant were measured. The evaluation of the activities of these enzymes was performed with reference to the conditions described in an existing literature report (Biochimie. 2012 March; 94(3):829-38.).
For the evaluation of the activities of the enzymes, the supernatant was quantified to give the same concentration. These enzymes were used as sample enzymes, and the reaction conditions were as follows: the reaction compositions were mixed to the quantified protein (0.05 mg) to give a total amount of 500 μL, and then measured at 30° C. at a UV wavelength of 290 nm for 90 seconds. With regard to the wild-type ATP phosphoribosyltransferase having low activity, the supernatant protein (0.3 mg) was used and measured at a UV wavelength of 290 nm for 30 minutes for the activity evaluation. The composition of the reaction solution for measuring the activities of the enzymes is as follows: […]

[4] = target: T1, ATP phosphoribosyltransferase (HisG); assay: Degree of inhibition by L-histidine on activities of ATP phosphoribosyltransferase variants; assay type: biochemical; settings: L-histidine 50 mM and 100 mM
Method: as §1, §2

Molecule | activity in composition solution containing L-histidine (in words) [1] | Activity of Enzyme, 0 mM L-histidine [2] | Activity of Enzyme, 50 mM L-histidine [2] | Activity of Enzyme, 100 mM L-histidine [2] | Activity of ATP phosphoribosyltransferase (HisG) [3] | activity fold higher than that of the wild-type enzyme ([3]; relative to wild-type enzyme) | inhibition of enzyme activity by L-histidine (in words) [4]
B1 | showed the highest activity | 2.082 U/mg | 1.435 U/mg | 1.335 U/mg | 2.082 U/mg | about 160 fold | 
B2 |  | 0.387 U/mg | 0.202 U/mg | 0.023 U/mg | 0.387 U/mg |  | 
B3 |  | 0.013 U/mg | 0 U/mg | 0 U/mg | 0.013 U/mg |  | completely inhibited
B4 |  | 0.021 U/mg | 0 U/mg | 0 U/mg | 0.021 U/mg |  | 
B5 |  | 1.3 U/mg | 0.679 U/mg | 0.413 U/mg | 1.3 U/mg |  | 
B6 |  | 1.381 U/mg | 0.64 U/mg | 0.542 U/mg | 1.381 U/mg |  | 
B7 |  | 0.408 U/mg | 0.157 U/mg | 0 U/mg | 0.408 U/mg |  | 
